Test results reported in the supplement of paper PMC12855868.

B1: library; numbered along this chain (parent)
chain: MAAAGGARLLRAASAVLGGPAGRWLHHAGSRAGSSGLLRNRGPGGSAEASRSLSVSARARSSSEDKITVHFINRDGETLTTKGKVGDSLLDVVVENNLDIDGFGACEGTLACSTCHLIFEDHIYEKLDAITDEENDMLDLAYGLTDRSRLGCQICLTKSMDNMTVRVPETVADARQSIDVGKTS

Variants of: B1
Experiment: scaled log2 fold change in cell abundance, elesclomol vs control (0 = silent mean, 1 = nonsense mean) (scaled log2 ratio); higher = higher viability under elesclomol (loss of FDX1 cuproptosis function)
Conditions: glucose 10 mM
[1] = with ABC1 FDX1 KO, elesclomol 5 nM, 14 days
[2] = with HEK293T FDX1 KO, elesclomol 40 nM, 11 days
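Also: variant abundance is its share of total variant reads in each endpoint sample, from next-generation sequencing of the integrated ORF PCR-amplified out of genomic DNA.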

Variant | scaled log2 fold change [1] | scaled log2 fold change [2]
Y124F | -0.497 | -0.225
Y124I | 0.367 | 0.0274
Y124P | 0.511 | 0.253
Y124V | -0.329 | -0.724
Y124E | 0.16 | 0.747
Y124M | -0.133 | -0.153
Y124D | 0.088 | 0.872
Y124Q | 0.286 | -0.703
Y124R | 0.234 | -0.258
Y124C | 0.198 | -0.0461
Y124K | 0.0432 | -0.66
K126F | -0.00916 | 0.517
K126L | -0.515 | -0.357
K126C | -0.0261 | -0.165
K126M | 0.305 | 0.341
K126G | 0.426 | 0.372
K126E | -0.285 | 0.945
K126I | -0.0257 | -0.476
K126A | -0.285 | 0.163
K126P | 0.252 | 0.147
K126N | -0.104 | -0.19
K126H | 0.0646 | 0.114
K126D | 0.116 | 0.255
D121Q | 0.169 | 0.0204

Variant | scaled log2 fold change [1] | scaled log2 fold change [2]
D121L | -0.202 | -0.00537
D121V | 0.222 | 0.458
D121R | -0.0191 | 1.32
D121T | -0.0111 | 
D121I | 0.217 | 
D121H | -0.394 | -0.25
D121A | -0.0978 | 0.0802
D121Y | -0.243 | 0.698
D121W | 0.324 | -0.123
D121E | 0.304 | -0.162
D121P | -0.198 | 
D121M | -0.556 | 1.79
D121N | -0.0427 | 
D121C | -0.164 | -0.257
D121F | 0.353 | 
D121S | -0.507 | 
D121G | 0.178 | -0.427
T114Q | -0.112 | 0.0599
T114F | 0.685 | 0.235
T114N | 0.0748 | 1.03
T114M | 0.114 | 0.455
T114V | 0.906 | 0.208
T114K | 0.766 | 0.199
T114Y | 0.838 | 0.412

Variant | scaled log2 fold change [1] | scaled log2 fold change [2]
T114R | 0.517 | 0.411
T114S | -0.416 | 0.997
T114C | 0.158 | 0.117
T114P | 1.01 | 0.956
T114D | 0.795 | 0.798
T114I | 1.02 | 1.01
T114E | 0.811 | 1.09
T114H | -0.00732 | 0.334
T114G | -1.41 | -0.22
T114A | -0.0113 | 0.0983
T114W | 1.03 | 0.814
T114L | 0.463 | 0.0445
H116N | -0.0564 | -0.554
H116I | -1.23 | 0.162
H116S | -0.0363 | 0.435
H116A | 0.129 | 0.404
H116G | 0.0557 | -0.405
H116T | 0.317 | -0.824
H116C | 0.0577 | 0.973
H116D | 0.16 | -0.115
H116W | -0.0982 | 0.125
H116V | 0.0823 | -0.296
H116Q | -0.185 | 0.198
H116L | -0.55 | -0.291

Variant | scaled log2 fold change [1] | scaled log2 fold change [2]
H116R | -0.042 | 0.647
H116Y | 0.484 | 1.02
H116F | 0.69 | 0.87
H116K | 0.464 | -0.0313
H116E | -0.124 | 0.106
H116M | -1.26 | 0.245
H116P | 0.152 | 0.891
C115I | 1.04 | 0.907
C115N | 0.976 | 1.34
C115V | 1.07 | 1.37
C115Y | 1.1 | 0.829
C115H | 0.953 | 1.29
C115D | 1.16 | 0.979
C115M | 1.03 | 1.19
C115K | 1.02 | 0.763
C115L | 1.09 | 1.15
C115F | 1 | 1.25
C115G | 1.06 | 1.1
C115A | 1.07 | 1.02
C115R | 1.02 | 1.68
C115P | 1.1 | 1.51
C115T | 1.13 | 0.783
C115E | 1.27 | 0.99
C115W | 1.1 | 1.36

Variant | scaled log2 fold change [1] | scaled log2 fold change [2]
C115S | 1.09 | 1.13
C115Q | 0.93 | 1.07
L117E | 1.05 | 0.745
L117H | 1.03 | 1.35
L117R | 1.14 | 0.855
L117V | 0.152 | 0.867
L117I | -0.11 | -0.196
L117Y | 1 | 1.02
L117K | 1.07 | 1.03
L117G | 0.483 | 0.224
L117P | 1.02 | 1.03
L117T | 0.178 | 0.185
L117D | 1.19 | 0.855
L117C | 0.0758 | 0.451
L117Q | 1.05 | 0.896
L117N | 1.04 | 0.559
L117A | 0.00712 | 0.115
L117M | 0.167 | -0.247
L117S | 0.36 | -1.36
L117F | 0.176 | 0.206
L117W | 1.03 | 0.891
